According to the supplement of paper PMC9170038:

Tested on: MS2 coat protein
Assay: apparent KD of MS2 coat protein; designed switch direction (-1 OFF switch, 1 ON switch): -1; higher = weaker reporter binding
How it was run: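 The apparent KD reported per design is the median over clusters of curve fits to normalised cluster fluorescence. The RNA switches were transcribed on Illumina chips by stalled E. coli RNA polymerase. SNAP-549-labelled MS2 coat protein was titrated from 0.7 or 1.5 nM, doubling up to 3 µM, in Tris-HCl pH 7.5 buffer containing KCl, MgCl2, BSA, DTT, tRNA and Tween-20, with no input, 200 uM small-molecule ligand, or an oligonucleotide input.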

[1] = Eterna round: R95, input ligand: microRNA oligo, concentration not stated
[2] = input ligand: microRNA oligo, concentration not stated
[3] = Eterna round: R95, input ligand: FMN 200 uM
[4] = Eterna round: R95, input ligand: none

Sequence | apparent KD of MS2 coat protein [1] [nM] | apparent KD of MS2 coat protein (input ligand: FMN 200 uM) [nM] | apparent KD of MS2 coat protein [2] [nM] | apparent KD of MS2 coat protein (input ligand: none) [nM] | apparent KD of MS2 coat protein [3] [nM] | apparent KD of MS2 coat protein [4] [nM]
GUGUACAGAGGAUAUACACGAGGAGUUACGAAAGUAACUUCACAUGAGGAUCACCCAUGUAGAAGGCUGUACAC [Dot plot directed v6] (puzzle: Exclusion 2) | 25.4 |  |  |  |  | 
AGCGCCAUCGUGAGAUGGCGUAUUACAUGAGGAUCACCCAUGUAGGAUAUCGAUUGCUUUGCAGUCGAGAAGGGCAUGUCCCAG [JL ENG3 3.80 Mod J] (Eterna round: R96, puzzle: Exclusion NG 3) |  | 23 | 19.2 | 24.1 |  | 
AAUAACAGAGGAUAUACUAUUUUAUGUGUUUGUUAUUUUGAACAUGAGGAUCACCCAUGUAGAAGGCUGAUUAA [JMF 49] (puzzle: Exclusion 2) | 39.4 |  |  |  |  | 
CCACGACAUGAGGAUCACCCAUGUGAGGAUAUGGCCUGAAAAGCGUGAGCAGAAUCAAUCAGAAGGCGCGUGGG [salish99_ex1_r4_060] (Eterna round: R97, puzzle: Exclusion 1) |  | 73.2 |  | 45.7 |  | 
UUUAAUUUUUUUUUUUUACAAGCUUUUUGCUCGUCUUAUACAUGAGGAUCACCCAUGUGGGUAGAAAAUAAAUUAUC [JMF 91] (puzzle: Sensor v3, turn-off variant 2) | 65.2 |  |  |  | 44.1 | 48.7
UAUCGGGACUGAGGAUAUUCGUUCGAACACGAAGAAGAAGGUAGUGUCAGGGACAUGAGGAUCACCCAUGUGAUCUCAGUCCUA [JL ViennaUCT Erinle mod 2] (Eterna round: R96, puzzle: Exclusion NG 1) |  | 130 | 67.9 | 100 |  | 
GGAUCGAAUGUGAGGAUAUGCUGGUCCUUGGAUCAGCAGAAGGCACAUGAGGAUCACCCAUGUGACCAAGAUCC [Eli bmx4 4.73] (Eterna round: R97, puzzle: Brourd's mod of Exclusion 4) |  | 450 |  | 44.1 |  | 
GGUUGGCGAGGAUAUACAUGAGGAUCACCCAUGUGAGAGAAAGAAGUGAGGAAGAAAAGUAGAAGGCGCUGACG [salish99_ex3_r3_005] (puzzle: Exclusion 3) | 196 |  |  |  | 542 | 59
GAUUGACAUGAGGAUCACCCAUGUGAGGAUAUCGGCCGGACCGUGUUGGCUUCCGUCGCGAGAAGGCGCAUAGG [Exclusion 1 V39] (puzzle: Exclusion 1) | 82.2 |  |  |  | 173 | 101
ACGCGUGGCUAGGAUAUCGAGGAAUCUAGCCAGCGAGAAGGAGCCACAUGAGGAUCACCCAUGUGGUGAUCCUC [jl-ex6-4.65 ViennaUCT mod] (Eterna round: R97, puzzle: Exclusion 6) |  | 6.76 |  | 3.8 |  | 
AAACCUGAAGUCAGGAUAUGAAGUAUCACUGUACUUCAGAAGGGACUUGAGGAUCACCCAAGUAGCCGUGAGGC [jl-bmx4.4.67 ViennaUCT mod] (Eterna round: R97, puzzle: Brourd's mod of Exclusion 4) |  | 116 |  | 28.8 |  | 
UAUGAGUCAGGAUAUUAGUAGUGUGUGGAUACAUAUAUUGCUGAGAAGGGACAUGAGGAUCACCCAUGUAUAAG [JR_Ex4_Sub056] (Eterna round: R97, puzzle: Exclusion 4) |  | 65.3 |  | 26.1 |  | 
CAGUACUGAGGAUAUACAUGAGGAUCACCCAUGUGCUCUAGCUAGGAUACUAGCAUUAGUAGAAGGCAGUACUG [Fiskers Ex 3 828 mod 8] (puzzle: Exclusion 3) | 15.2 |  |  |  |  | 
AGUAACUAUCACGAAAGUGAUAGUUACAAAACAAGUGAAACAUGAGGAUCACCCAUGUCCUCACUUGCUCGUCUUAU [Sensor 3 - 5] (puzzle: Sensor v3, turn-off variant 2) | 128 |  |  |  | 14.2 | 13.4
AGGUGUAGAGGAUAUACUGCAAAGCACAUGAGGAUCACCCAUGUCCCUCUAUGAGAUUAAGUAGAAGGCUACACCA [Omei Ex5 C4] (Eterna round: R97, puzzle: Exclusion 5) |  | 55.7 |  | 49.9 |  | 
AUAAUGUGAGGAUAUCAGUCGUACAGCCUCGGCUGUACGACUGAGAAGGCACAUGAGGAUCACCCAUGUGGUCA [E4/5-A2] (Eterna round: R97, puzzle: Exclusion 4) |  | 156 |  | 590 |  | 
CAAAAGGUAGGAUAUACGAAAAAAAAGGGUAGAAAAAAAACACAUGAGGAUCACCCAUGUAGAAGGACCAAAAG [salish99_ex2_r3_053] (puzzle: Exclusion 2) | 24.9 |  |  |  | 71.2 | 22.2
GCACUGACAGGAUAUACAUGAGGAUCACCCAUGUGACCCUUAUAGUACUCGCGUACUAGUAGAAGGGUCUGUGC [Omei Ex3 Model Bachelor's Dilema v33] (Eterna round: R97, puzzle: Exclusion 3) |  | 324 |  | 59.4 |  | 

Sequence | apparent KD of MS2 coat protein [1] [nM] | apparent KD of MS2 coat protein (input ligand: FMN 200 uM) [nM] | apparent KD of MS2 coat protein [2] [nM] | apparent KD of MS2 coat protein (input ligand: none) [nM] | apparent KD of MS2 coat protein [3] [nM] | apparent KD of MS2 coat protein [4] [nM]
GGUGCGUAUGUGAGGAUAUGCUGGUCCUUGGAUCAGCAGAAGGCACAUGAGGAUCACCCAUGUGGUGUCGUUCC [salish99_Bmod_Ex4_020] (puzzle: Brourd's mod of Exclusion 4) | 363 |  |  |  |  | 
GGUGCGUUUGUGAGGAUAUGCUGGUCCUUGGAUCAGCAGAAGGCACAUGAGGAUCACCCAUGUGGUGUCGUUCC [salish99_Bmod_Ex4_037] (puzzle: Brourd's mod of Exclusion 4) | 137 |  |  |  |  | 
UUUUUUUUGCGAGGAUAUGCUUUUAGUAAGUUAGCAGAAGGCGCGUUACAUAGAACCUCUUCUUACAUGAGGAUCACCCAUGUU [JR_ExcNG1_Sub035] (Eterna round: R96, puzzle: Exclusion NG 1) |  | 95.6 | 56 | 61.9 |  | 
AGCUGUGGCCGAGGAUAUCUGUUCCAUAUAACCGAAAUAUAAUCGGACAUGAGGAUCACCCAUGUAGAGAAGGCGGUCUCAGCA [Eli eng2 - 100] (Eterna round: R96, puzzle: Exclusion NG 2) |  |  | 18.8 |  |  | 
UUGACGUCGUCAGGAUAUAGUUUUAAUGUCAUGCUUUUGUUUUUACAUGAGGAUCACCCAUGUCGCUAGAAGGGACUAAAGAUU [JR_ExcNG2_Sub012] (Eterna round: R96, puzzle: Exclusion NG 2) |  | 33.5 | 32.8 | 35 |  | 
GCCGAUUAAGUCAGGAUAUACCUAUGGAUACAUAGGUAGAAGGGACAUGAGGAUCACCCAUGUUCCUCACCGGC [Fiskers BMX 4 - 15] (puzzle: Brourd's mod of Exclusion 4) | 12 |  |  |  |  | 
AGGUCACAUGAGGAUCACCCAUGUCAGGAUAUCUACAUUGAAGCCUCGGCUUCAAUGUAGAGAAGGGAUAAUUA [E1/8-B2] (Eterna round: R97, puzzle: Exclusion 1) |  | 63.7 |  | 44.7 |  | 
CUUAUGUCAGGAUAUGCCUGGCCGUGAGGCCAAAUUGAAUAGCAGAAGGGACAUGAGGAUCACCCAUGUCCGGG [jl-ex4-4.64 ViennaUCT mod] (Eterna round: R97, puzzle: Exclusion 4) |  | 115 |  | 130 |  | 
CUCUUGUUAGGAUAUCAAACCAGUGACGGAACCACUGGAAGUGAGAAGGGACAUGAGGAUCACCCAUGUAAGAA [Edraate] (puzzle: Exclusion 4) | 52.3 |  |  |  |  | 
GAUUAUGCGAGCUUUAGGGACAUGAGGAUCACCCAUGUUCGUCUUAUUGAUCUGGGUACACUAACAUACCUAAAUCU [JMF 20] (puzzle: Sensor v3, turn-off variant 1) | 99.7 |  |  |  | 87.2 | 94.3
ACCUCACAUGAGGAUCACCCAUGUCAGGAUAUAAUUUCAAACAUCAAUCGCGGCGCUGAGAGAAGGGUCAAAAC (Eterna round: R97, puzzle: Exclusion 1) |  | 15.7 |  | 15.9 |  | 
AGGUCCUUCUGGAGACAUGAGGAUCACCCAUGUCGAGUCAGCGAGGAUAUCGGUUAAUAAUGUGACGAGAAGGCGCGGACCGAU [Ex NG3 #55] (Eterna round: R96, puzzle: Exclusion NG 3) |  | 45.1 | 9.82 | 13 |  | 
CAUAUUGUAGGAUAUAUUCGAAAGGUCCUCUUCCCAUACCGACAUGAGGAUCACCCAUGUAGAAGGAUAGUGCC [Eternabot (L2) Solution 13] (Eterna round: R97, puzzle: Exclusion 2) |  | 48.9 |  | 53.6 |  | 
GUGAAGUAAGGAUAUAGUGGAAAAGAUAAGGUAUGAGAGUUCUAGAAGGUACAUGAGGAUCACCCAUGUUAGGG [JR_Exclu4_Sub085] (puzzle: Exclusion 4) | 267 |  |  |  |  | 
AAGUACCGUCACGAUAGUGAUGGUACAGCAAGCAAGUGAACAUGAGGAUCACCCAUGUCCUCAAUUGCUCGUCUUAU [Sensor 3 - 72] (puzzle: Sensor v3, turn-off variant 2) | 55.5 |  |  |  | 25 | 24.1
GAUUAUGCGAGCUUUAGGGACAUGAGGAUCACCCAUGUUCGUCUUAUUAAUCUGGGUACACUAGCAUACCUAAAUCU [JMF 8] (puzzle: Sensor v3, turn-off variant 1) | 44.1 |  |  |  | 26.9 | 30.5
AUAAUGUGAGGAUAUAUGAAUCACGGUGAUACACCGUGAAGAUAGAAGGUACAUGAGGAUCACCCAUGUAGGGC [Mod of Anonveat 14 - Jieux - Exclusion 4] (Eterna round: R97, puzzle: Exclusion 4) |  | 39.5 |  | 42.3 |  | 
